{
  "source": "patent US20110262396A1",
  "about": "“COMBINATION TREATMENTS COMPRISING PROTEASE BINDING PROTEINS FOR INFLAMMATORY DISORDERS” (DYAX CORP., priority 2008, published 2011)",
  "molecules": {"B1": {"name": "DX-2400: exemplary MMP-14 antibody; VH SEQ ID NO:59, VL SEQ ID NO:23 (antibody, V domains shown)", "VH": "EVQLLESGGGLVQPGGSLRLSCAASGFTFSLYSMNWVRQAPGKGLEWVSSIYSSGGSTLYADSVKGRFTISRDNSKNTLYLQMNSLRAEDTAVYYCARGRAFDIWGQGTMVTVSS", "VL": "DIQMTQSPSSLSASVGDRVTITCRASQSVGTYLNWYQQKPGKAPKLLIYATSNLRSGVPSRFSGSGSGTDFTLTISSLQPEDFATYYCQQSYSIPRFTFGPGTKVDIK"}, "B2": {"name": "DX-2410: exemplary MMP-14 antibody; VH SEQ ID NO:24, VL SEQ ID NO:25 (antibody, V domains shown)", "VH": "EVQLLESGGGLVQPGGSLRLSCAASGFTFSVYGMVWVRQAPGKGLEWVSVISSSGGSTWYADSVKGRFTISRDNSKNTLYLQMNSLRAEDTAVYYCARPFSRRYGVFDYWGQGTLVTVSS", "VL": "DIQMTQSPSSLSASVGDRVTITCRASQGIRNFLAWYQQKPGKVPKLLIYGASALQSGVPSRFSGSGSGTDFTLTISSLQPEDVATYYCQKYNGVPLTFGGGTKVEIK"}, "B3": {"name": "539A-M0240-B03: selective inhibitor of MMP-9; parental isolate (sFab; IgG) (antibody, V domains shown)", "VL": "QYELTQPRSVSGSPGQSVTISCTGTSSDVGGYNYVSWYQQHPGKAPKLMIYDVSKRPSGVPDRFSGSKSGNTASLTISGLQAEDEADYYCCSYAGSYTLVFGGGTKLTVL", "VH": "EVQLLESGGGLVQPGGSLRLSCAASGFTFSTYQMVWVRQAPGKGLEWVSVIYPSGGPTVYADSVKGRFTISRDNSKNTLYLQMNSLRAEDTAVYYCARGEDYYDSSGPGAFDIWGQGTMVTVSS"}, "B4": {"name": "DX-2712: Dyax inhibitor of MMP-12; specific MMP-12 antibody inhibitor; VL SEQ ID NO:118, VH SEQ ID NO:120 (antibody, V domains shown)", "VH": "EVQLLESGGGLVQPGGSLRLSCAASGFTFSWYWMHWVRQAPGKGLEWVSGISPSGGMTMYADSVKGRFTISRDNSKNTLYLQMNSLRAEDTAVYYCARDIVGPYSAGLFDYWGRGTLVTVSS", "VL": "DIQMTQSPSSLSASVGDRVTITCRASQSIYTYLNWYQQKPGKAPKLLIYAASSLQSGVPSRFSGSGSGTDFTLTISSLQPEDFATYYCQQAGIFGQGTKLEIK"}, "B5": {"name": "DX-1000 (designed binder)", "chain": "EAMHSFCAFKAETGPCRARFDRWFFNIFTRQCEEFIYGGCEGNQNRFESLEECKKMCTRD"}},
  "key": {"[1]": {"system": "MMP-14 expressed in synovial cells", "test": "Collagen film degradation by human synovial cells (Example 8)", "format": "cell-based", "conditions": "human fibroblasts on bovine type I collagen film, 4 days, data not shown; for collagen film degradation: 37° C.", "protocol": "Human rheumatoid synovial fibroblasts spontaneously express high levels of MMP-14 (Miller et al, 2009 Arthritis Rheum. 2009 March; 60(3):686-97). When they are cultured on collagen film, MMP-14 expressed in synovial cells effectively degrades the collagen film. Human fibroblasts were cultured on bovine type I collagen film at 37° C. for 4 days in the presence or absence of a broad spectrum MMP-inhibitor GM6001, DX-2400 or DX-2410. Cells were then removed from collagen surface by trypsin/EDTA to reveal collagen film. Films were then fixed with 3% PFA for 30 min. and stained with Coomassie blue."}, "[2]": {"system": "collagen-induced arthritis (CIA)", "test": "CIA mouse model, DX-2712 as monotherapy or combined with DMARDs or BRMs (Example 7)", "format": "in vivo, mouse (DBA/1)", "conditions": "end of study, 31 days of therapy; number in parentheses = dose in mg/kg (Table 12); DX-2712 20 mg/kg IP Q2D"}, "[3]": {"test": "Platelet function screening test"}, "[4]": {"test": "Global coagulation screening tests"}, "[5]": {"system": "HT-1080 (fibrosarcoma)", "test": "Invasion of HT-1080 through Matrigel", "format": "cell-based", "conditions": "DX-1000 1 nM", "protocol": "(§1) Firstly, DX-1000 (1 nM) inhibited both DHT-stimulated invasion of LNCaPs (prostate cancer) and HT-1080 (fibrosarcoma) through Matrigel, processes known to be dependent on the plasminogen/plasmin system."}, "[6]": {"system": "gelatinases", "test": "Expression and activation of gelatinases", "format": "cell-based"}, "[7]": {"system": "LNCaPs (prostate cancer)", "test": "DHT-stimulated invasion of LNCaPs through Matrigel", "format": "cell-based", "conditions": "DX-1000 1 nM", "protocol": "as §1"}, "[8]": {"system": "human endothelial cells", "test": "Tube formation of human endothelial cells", "format": "cell-based", "conditions": "1-10 nM; plated on Matrigel or collagen type I"}, "[9]": {"system": "mouse endothelial cells", "test": "Tube formation of mouse endothelial cells", "format": "cell-based", "conditions": "1-10 nM; plated on Matrigel or collagen type I"}, "[10]": {"system": "collagen-induced arthritis (CIA)", "test": "DX-2400 and DX-2410 in CIA mouse model (Example 10)", "format": "in vivo, mouse (DBA)", "conditions": "20 mg/kg i.p. 3x/week from day 21 after collagen injection; for development of arthritis as assessed by histological analysis of the joints: FIG. 9(A)", "protocol": "200 μg of chicken type II collagen was injected subcutaneously with complete Freunds adjuvant in DBA mice (male, 3-4 months old). After 21 days, test compounds were administered i.p. at 20 mg/kg, 3×/week. The first mouse which developed clinical symptom of arthritis was detected 26 days after collagen injection. […] FIG. 9(B) provides a description of the histology scoring system used."}, "[11]": {"molecular_target": "mouse MMP-9 (Mus musculus, UniProt P41245)", "sequence (P41245 108-730)": "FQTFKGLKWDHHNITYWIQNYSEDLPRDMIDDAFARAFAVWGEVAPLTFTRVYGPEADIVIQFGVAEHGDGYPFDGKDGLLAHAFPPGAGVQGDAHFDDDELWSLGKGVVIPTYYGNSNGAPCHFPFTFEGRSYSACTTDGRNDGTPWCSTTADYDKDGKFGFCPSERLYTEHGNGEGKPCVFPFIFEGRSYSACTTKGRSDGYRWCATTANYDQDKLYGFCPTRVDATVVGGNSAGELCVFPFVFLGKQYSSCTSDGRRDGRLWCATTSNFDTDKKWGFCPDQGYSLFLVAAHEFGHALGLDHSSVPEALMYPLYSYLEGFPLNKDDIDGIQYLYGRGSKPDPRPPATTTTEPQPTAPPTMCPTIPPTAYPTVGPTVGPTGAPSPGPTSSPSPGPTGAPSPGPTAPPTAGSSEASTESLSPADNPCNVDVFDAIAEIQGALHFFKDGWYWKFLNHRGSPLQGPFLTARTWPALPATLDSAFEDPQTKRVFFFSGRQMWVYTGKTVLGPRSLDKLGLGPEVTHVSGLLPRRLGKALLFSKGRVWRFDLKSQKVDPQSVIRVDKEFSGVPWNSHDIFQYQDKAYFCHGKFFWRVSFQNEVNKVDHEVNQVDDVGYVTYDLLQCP", "test": "Inhibition of mouse MMP-9", "format": "biochemical"}, "[12]": {"molecular_target": "human MMP-9 (Homo sapiens, UniProt P14780)", "sequence (P14780 94-707)": "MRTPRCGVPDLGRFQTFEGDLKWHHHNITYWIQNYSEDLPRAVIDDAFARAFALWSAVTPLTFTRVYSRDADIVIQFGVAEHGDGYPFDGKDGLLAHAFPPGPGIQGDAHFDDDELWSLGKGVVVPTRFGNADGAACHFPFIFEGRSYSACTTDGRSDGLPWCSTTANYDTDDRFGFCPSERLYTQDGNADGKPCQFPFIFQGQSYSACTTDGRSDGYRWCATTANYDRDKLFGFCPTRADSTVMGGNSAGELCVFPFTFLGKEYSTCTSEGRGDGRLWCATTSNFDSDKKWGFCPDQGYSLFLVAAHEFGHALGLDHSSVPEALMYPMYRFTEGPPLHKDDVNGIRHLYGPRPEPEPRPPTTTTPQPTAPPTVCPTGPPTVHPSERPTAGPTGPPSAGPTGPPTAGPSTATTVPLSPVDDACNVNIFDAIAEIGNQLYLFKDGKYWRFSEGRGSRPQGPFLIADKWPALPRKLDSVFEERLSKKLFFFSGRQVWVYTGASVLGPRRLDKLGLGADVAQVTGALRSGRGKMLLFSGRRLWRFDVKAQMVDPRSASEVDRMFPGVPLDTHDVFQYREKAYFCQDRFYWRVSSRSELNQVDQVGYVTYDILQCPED", "test": "Inhibition of human MMP-9", "format": "biochemical"}, "[13]": {"system": "collagen-induced arthritis (CIA)", "test": "MMP-12 inhibition in mouse collagen-induced arthritis (Example 1)", "format": "in vivo", "conditions": "20 mg/kg IP Q2D", "from_the_text": "The study design was as depicted in Table 6 below. [table]"}, "[14]": {"molecular_target": "T1, human plasmin (human, UniProt P00747 97-810, limits assumed)", "T1 construct": "In the cell invasion assays the plasmin is that of the cell cultures", "T1 sequence (P00747 97-810 limits assumed)": "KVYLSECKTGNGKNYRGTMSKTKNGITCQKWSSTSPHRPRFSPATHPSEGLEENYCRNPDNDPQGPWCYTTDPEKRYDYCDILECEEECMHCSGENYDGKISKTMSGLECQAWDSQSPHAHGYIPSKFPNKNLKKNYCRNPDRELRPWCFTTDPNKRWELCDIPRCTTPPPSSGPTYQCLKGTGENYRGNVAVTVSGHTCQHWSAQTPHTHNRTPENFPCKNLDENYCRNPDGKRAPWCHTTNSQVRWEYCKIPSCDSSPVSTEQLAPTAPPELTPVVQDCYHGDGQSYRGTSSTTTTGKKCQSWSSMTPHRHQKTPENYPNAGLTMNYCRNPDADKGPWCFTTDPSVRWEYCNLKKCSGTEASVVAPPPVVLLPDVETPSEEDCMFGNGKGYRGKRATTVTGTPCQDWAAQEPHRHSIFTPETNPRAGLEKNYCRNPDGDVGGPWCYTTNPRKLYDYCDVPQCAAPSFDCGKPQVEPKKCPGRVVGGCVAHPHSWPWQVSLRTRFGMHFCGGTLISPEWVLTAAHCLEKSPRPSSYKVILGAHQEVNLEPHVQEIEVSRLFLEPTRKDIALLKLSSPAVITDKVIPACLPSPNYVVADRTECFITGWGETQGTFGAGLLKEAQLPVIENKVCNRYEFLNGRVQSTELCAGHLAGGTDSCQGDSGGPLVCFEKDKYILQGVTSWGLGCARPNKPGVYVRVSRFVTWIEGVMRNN", "test": "inhibition of human plasmin; method not described"}},
  "data": [
    {"molecule": "CNC(=O)[C@H](Cc1c[nH]c2ccccc12)NC(=O)[C@@H](CC(=O)NO)CC(C)C", "note": "[GM6001, reference compound]", "values": [
      {"measurement": "collagen film degradation", "setting": "[1]", "value": "completely abolished"}
    ]},
    {"molecule": "CN(Cc1cnc2nc(N)nc(N)c2n1)c1ccc(C(=O)N[C@@H](CCC(=O)O)C(=O)O)cc1", "note": "[MTX (3), methotrexate]", "values": [
      {"measurement": "% change in AI Score", "setting": "[2]", "value": "−80.74", "unit": "%"}
    ]},
    {"molecule": "DX-1000: Kunitz domain polypeptide that inhibits human plasmin; SEQ ID NO:100 or SEQ ID NO:200 (EAMHSFCAFKAETGPCRARFDRWFFNIFTRQCEEFIYGGCEGNQNRFESLEECKKMCTRD)", "values": [
      {"measurement": "effects on a platelet function screening test", "setting": "[3]", "value": "no clinically significant effects"},
      {"measurement": "effects on global coagulation screening tests", "setting": "[4]", "value": "no clinically significant effects"},
      {"measurement": "invasion of HT-1080 through Matrigel", "setting": "[5]", "value": "inhibited"},
      {"measurement": "expression and activation of gelatinases", "setting": "[6]", "value": "down-regulated efficiently"},
      {"measurement": "DHT-stimulated invasion of LNCaPs through Matrigel", "setting": "[7]", "value": "inhibited"},
      {"measurement": "tube formation of human endothelial cells", "setting": "[8]", "value": "efficiently blocked"},
      {"measurement": "tube formation of mouse endothelial cells", "setting": "[9]", "value": "efficiently blocked"}
    ]},
    {"molecule": "Etanercept [Enbrel (30)]", "values": [
      {"measurement": "% change in AI Score", "setting": "[2]", "value": "−70.37", "unit": "%"}
    ]},
    {"molecule": "B1", "values": [
      {"measurement": "inhibition of collagen film degradation at 500 nM", "setting": "[1]", "value": "almost complete inhibition"},
      {"measurement": "collagen film degradation", "setting": "[1]", "value": "inhibited collagen degradation in a dose-dependent manner"},
      {"measurement": "redness and swelling of paws", "setting": "[10]", "value": "did not significantly improve"},
      {"measurement": "development of arthritis as assessed by histological analysis of the joints", "setting": "[10]", "value": "significantly attenuated"}
    ]},
    {"molecule": "B2", "values": [
      {"measurement": "inhibition of collagen film degradation at 500 nM", "setting": "[1]", "value": "slightly lower than DX-2400, showing degraded area"},
      {"measurement": "collagen film degradation", "setting": "[1]", "value": "inhibited collagen degradation in a dose-dependent manner"},
      {"measurement": "redness and swelling of paws", "setting": "[10]", "value": "did not significantly improve"},
      {"measurement": "development of arthritis as assessed by histological analysis of the joints", "setting": "[10]", "value": "significantly attenuated"}
    ]},
    {"molecule": "B3", "values": [
      {"measurement": "inhibition of mouse MMP-9 activity", "setting": "[11]", "value": "can decrease or inhibit the activity"},
      {"measurement": "inhibition of human MMP-9 activity", "setting": "[12]", "value": "can decrease or inhibit the activity"}
    ]},
    {"molecule": "B4", "values": [
      {"measurement": "overall inhibition of the arthritic histological indices", "setting": "[13]; compared to untreated mice, p<0.05, FIG. 3", "value": 29, "unit": "%"},
      {"measurement": "disease development (arthritic score)", "setting": "[13]; days 36-46, FIG. 2", "value": "arrested"},
      {"measurement": "arthritic score", "setting": "[13]; last day of the study, FIG. 2", "value": "sharp increase in arthritic score"},
      {"measurement": "disease development (arthritic score)", "setting": "[13]; through day 35, FIG. 2", "value": "delayed disease development"},
      {"measurement": "% change in AI Score", "setting": "[2]", "value": "−34.07", "unit": "%"}
    ]},
    {"molecule": "B5", "values": [
      {"measurement": "Ki", "setting": "[14]", "value": 0.088, "unit": "nM"}
    ]}
  ]
}
